# Laboratory results taken from IntAct's records for PubMed 21743455.
# B1: Wnt inhibitory factor 1 (Homo sapiens), Q9Y5W5 (parent)
# chain: MARRSAFPAAALWLWSILLCLLALRAEAGPPQEESLYLWIDAHQARVLIGFEEDILIVSEGKMAPFTHDFRKAQQRMPAIPVNIHSMNFTWQAAGQAEYFYEFLSLRSLDKGIMADPTVNVPLLGTVPHKASVVQVGFPCLGKQDGVAAFEVDVIVMNSEGNTILQTPQNAIFFKTCQQAECPGGCRNGGFCNERRICECPDGFHGPHCEKALCTPRCMNGGLCVTPGFCICPPGFYGVNCDKANCSTTCFNGGTCFYPGKCICPPGLEGEQCEISKCPQPCRNGGKCIGKSKCKCSKGYQGDLCSKPVCEPGCGAHGTCHEPNKCQCQEGWHGRHCNKRYEASLIHALRPAGAQLRQHTPSLKKAEERRDPPESNYIW
# Variants of: B1
# Settings: with wnt3a_mouse Wnt3a
row,effect of a mutation on the interaction,Variant
1,decreasing interaction,M77W
